Experimental data from patent EP1451343B1.

Target: mouse BRCA1 protein (mouse) (UniProt P48754)
Assay: cell-based or functional assay

Sequence of UniProt P48754 (P48754 whole entry): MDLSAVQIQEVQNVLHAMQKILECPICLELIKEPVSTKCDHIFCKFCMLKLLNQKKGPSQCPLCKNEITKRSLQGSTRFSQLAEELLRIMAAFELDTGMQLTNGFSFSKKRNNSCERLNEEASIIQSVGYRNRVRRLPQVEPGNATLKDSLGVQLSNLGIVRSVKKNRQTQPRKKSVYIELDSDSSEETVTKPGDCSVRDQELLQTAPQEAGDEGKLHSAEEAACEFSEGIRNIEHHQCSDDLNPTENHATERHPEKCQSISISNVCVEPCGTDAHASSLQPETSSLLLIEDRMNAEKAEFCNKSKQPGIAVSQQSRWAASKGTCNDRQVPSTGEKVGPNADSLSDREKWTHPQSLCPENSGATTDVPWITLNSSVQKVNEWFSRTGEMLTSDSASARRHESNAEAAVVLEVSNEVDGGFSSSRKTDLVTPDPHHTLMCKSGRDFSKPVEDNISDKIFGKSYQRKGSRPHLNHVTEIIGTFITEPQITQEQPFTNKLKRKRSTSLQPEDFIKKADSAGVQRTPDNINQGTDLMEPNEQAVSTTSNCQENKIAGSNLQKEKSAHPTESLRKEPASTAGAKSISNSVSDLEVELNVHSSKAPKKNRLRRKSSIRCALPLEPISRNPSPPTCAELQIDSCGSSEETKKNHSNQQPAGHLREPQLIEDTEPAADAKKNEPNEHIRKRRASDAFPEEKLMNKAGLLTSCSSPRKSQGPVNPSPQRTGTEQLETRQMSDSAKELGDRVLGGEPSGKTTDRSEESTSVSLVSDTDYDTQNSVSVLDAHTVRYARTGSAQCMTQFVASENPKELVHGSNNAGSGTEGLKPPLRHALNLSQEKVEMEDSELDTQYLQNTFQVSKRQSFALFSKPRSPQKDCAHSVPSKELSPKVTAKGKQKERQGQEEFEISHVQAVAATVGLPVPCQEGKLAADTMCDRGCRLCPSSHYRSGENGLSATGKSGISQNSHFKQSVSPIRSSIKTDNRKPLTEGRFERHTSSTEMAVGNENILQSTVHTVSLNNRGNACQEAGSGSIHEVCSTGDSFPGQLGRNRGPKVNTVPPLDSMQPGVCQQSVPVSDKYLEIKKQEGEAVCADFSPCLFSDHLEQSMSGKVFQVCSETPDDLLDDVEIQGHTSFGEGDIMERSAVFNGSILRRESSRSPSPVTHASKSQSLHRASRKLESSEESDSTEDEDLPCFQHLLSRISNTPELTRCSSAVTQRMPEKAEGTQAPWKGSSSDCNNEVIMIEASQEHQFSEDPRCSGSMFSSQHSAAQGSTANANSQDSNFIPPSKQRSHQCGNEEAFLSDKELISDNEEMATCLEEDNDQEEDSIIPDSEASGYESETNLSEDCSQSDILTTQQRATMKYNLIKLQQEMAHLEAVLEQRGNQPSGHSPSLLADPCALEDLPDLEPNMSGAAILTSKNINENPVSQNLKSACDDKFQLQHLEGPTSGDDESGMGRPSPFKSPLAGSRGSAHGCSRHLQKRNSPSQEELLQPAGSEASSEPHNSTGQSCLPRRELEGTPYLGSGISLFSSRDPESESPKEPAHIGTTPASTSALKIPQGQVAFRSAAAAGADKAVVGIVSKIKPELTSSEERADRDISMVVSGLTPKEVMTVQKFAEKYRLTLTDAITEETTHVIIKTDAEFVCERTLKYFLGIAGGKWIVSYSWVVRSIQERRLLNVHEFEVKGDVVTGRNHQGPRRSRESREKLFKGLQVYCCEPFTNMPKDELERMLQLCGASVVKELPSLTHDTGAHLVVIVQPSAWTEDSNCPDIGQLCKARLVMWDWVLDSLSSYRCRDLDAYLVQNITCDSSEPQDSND

- anti-FANCD2 foci co-localized with regions of intense anti-BRCA1 staining (20 pachytene nuclei of mouse spermatocytes): 65%
Substance: mouse FANCD2 protein (from UniProt Q80V62 1-1450)
